Results: doi:10.1101/2024.12.02.626349

Biological target: endogenous UBR4 tagged with FLAG at the UBR4 locus (human (endogenous in HEK293T)) (UniProt Q5T4S7)
Test: cryo-EM structure

Chain of endogenous UBR4 tagged with FLAG at the UBR4 locus (Q5T4S7 whole entry): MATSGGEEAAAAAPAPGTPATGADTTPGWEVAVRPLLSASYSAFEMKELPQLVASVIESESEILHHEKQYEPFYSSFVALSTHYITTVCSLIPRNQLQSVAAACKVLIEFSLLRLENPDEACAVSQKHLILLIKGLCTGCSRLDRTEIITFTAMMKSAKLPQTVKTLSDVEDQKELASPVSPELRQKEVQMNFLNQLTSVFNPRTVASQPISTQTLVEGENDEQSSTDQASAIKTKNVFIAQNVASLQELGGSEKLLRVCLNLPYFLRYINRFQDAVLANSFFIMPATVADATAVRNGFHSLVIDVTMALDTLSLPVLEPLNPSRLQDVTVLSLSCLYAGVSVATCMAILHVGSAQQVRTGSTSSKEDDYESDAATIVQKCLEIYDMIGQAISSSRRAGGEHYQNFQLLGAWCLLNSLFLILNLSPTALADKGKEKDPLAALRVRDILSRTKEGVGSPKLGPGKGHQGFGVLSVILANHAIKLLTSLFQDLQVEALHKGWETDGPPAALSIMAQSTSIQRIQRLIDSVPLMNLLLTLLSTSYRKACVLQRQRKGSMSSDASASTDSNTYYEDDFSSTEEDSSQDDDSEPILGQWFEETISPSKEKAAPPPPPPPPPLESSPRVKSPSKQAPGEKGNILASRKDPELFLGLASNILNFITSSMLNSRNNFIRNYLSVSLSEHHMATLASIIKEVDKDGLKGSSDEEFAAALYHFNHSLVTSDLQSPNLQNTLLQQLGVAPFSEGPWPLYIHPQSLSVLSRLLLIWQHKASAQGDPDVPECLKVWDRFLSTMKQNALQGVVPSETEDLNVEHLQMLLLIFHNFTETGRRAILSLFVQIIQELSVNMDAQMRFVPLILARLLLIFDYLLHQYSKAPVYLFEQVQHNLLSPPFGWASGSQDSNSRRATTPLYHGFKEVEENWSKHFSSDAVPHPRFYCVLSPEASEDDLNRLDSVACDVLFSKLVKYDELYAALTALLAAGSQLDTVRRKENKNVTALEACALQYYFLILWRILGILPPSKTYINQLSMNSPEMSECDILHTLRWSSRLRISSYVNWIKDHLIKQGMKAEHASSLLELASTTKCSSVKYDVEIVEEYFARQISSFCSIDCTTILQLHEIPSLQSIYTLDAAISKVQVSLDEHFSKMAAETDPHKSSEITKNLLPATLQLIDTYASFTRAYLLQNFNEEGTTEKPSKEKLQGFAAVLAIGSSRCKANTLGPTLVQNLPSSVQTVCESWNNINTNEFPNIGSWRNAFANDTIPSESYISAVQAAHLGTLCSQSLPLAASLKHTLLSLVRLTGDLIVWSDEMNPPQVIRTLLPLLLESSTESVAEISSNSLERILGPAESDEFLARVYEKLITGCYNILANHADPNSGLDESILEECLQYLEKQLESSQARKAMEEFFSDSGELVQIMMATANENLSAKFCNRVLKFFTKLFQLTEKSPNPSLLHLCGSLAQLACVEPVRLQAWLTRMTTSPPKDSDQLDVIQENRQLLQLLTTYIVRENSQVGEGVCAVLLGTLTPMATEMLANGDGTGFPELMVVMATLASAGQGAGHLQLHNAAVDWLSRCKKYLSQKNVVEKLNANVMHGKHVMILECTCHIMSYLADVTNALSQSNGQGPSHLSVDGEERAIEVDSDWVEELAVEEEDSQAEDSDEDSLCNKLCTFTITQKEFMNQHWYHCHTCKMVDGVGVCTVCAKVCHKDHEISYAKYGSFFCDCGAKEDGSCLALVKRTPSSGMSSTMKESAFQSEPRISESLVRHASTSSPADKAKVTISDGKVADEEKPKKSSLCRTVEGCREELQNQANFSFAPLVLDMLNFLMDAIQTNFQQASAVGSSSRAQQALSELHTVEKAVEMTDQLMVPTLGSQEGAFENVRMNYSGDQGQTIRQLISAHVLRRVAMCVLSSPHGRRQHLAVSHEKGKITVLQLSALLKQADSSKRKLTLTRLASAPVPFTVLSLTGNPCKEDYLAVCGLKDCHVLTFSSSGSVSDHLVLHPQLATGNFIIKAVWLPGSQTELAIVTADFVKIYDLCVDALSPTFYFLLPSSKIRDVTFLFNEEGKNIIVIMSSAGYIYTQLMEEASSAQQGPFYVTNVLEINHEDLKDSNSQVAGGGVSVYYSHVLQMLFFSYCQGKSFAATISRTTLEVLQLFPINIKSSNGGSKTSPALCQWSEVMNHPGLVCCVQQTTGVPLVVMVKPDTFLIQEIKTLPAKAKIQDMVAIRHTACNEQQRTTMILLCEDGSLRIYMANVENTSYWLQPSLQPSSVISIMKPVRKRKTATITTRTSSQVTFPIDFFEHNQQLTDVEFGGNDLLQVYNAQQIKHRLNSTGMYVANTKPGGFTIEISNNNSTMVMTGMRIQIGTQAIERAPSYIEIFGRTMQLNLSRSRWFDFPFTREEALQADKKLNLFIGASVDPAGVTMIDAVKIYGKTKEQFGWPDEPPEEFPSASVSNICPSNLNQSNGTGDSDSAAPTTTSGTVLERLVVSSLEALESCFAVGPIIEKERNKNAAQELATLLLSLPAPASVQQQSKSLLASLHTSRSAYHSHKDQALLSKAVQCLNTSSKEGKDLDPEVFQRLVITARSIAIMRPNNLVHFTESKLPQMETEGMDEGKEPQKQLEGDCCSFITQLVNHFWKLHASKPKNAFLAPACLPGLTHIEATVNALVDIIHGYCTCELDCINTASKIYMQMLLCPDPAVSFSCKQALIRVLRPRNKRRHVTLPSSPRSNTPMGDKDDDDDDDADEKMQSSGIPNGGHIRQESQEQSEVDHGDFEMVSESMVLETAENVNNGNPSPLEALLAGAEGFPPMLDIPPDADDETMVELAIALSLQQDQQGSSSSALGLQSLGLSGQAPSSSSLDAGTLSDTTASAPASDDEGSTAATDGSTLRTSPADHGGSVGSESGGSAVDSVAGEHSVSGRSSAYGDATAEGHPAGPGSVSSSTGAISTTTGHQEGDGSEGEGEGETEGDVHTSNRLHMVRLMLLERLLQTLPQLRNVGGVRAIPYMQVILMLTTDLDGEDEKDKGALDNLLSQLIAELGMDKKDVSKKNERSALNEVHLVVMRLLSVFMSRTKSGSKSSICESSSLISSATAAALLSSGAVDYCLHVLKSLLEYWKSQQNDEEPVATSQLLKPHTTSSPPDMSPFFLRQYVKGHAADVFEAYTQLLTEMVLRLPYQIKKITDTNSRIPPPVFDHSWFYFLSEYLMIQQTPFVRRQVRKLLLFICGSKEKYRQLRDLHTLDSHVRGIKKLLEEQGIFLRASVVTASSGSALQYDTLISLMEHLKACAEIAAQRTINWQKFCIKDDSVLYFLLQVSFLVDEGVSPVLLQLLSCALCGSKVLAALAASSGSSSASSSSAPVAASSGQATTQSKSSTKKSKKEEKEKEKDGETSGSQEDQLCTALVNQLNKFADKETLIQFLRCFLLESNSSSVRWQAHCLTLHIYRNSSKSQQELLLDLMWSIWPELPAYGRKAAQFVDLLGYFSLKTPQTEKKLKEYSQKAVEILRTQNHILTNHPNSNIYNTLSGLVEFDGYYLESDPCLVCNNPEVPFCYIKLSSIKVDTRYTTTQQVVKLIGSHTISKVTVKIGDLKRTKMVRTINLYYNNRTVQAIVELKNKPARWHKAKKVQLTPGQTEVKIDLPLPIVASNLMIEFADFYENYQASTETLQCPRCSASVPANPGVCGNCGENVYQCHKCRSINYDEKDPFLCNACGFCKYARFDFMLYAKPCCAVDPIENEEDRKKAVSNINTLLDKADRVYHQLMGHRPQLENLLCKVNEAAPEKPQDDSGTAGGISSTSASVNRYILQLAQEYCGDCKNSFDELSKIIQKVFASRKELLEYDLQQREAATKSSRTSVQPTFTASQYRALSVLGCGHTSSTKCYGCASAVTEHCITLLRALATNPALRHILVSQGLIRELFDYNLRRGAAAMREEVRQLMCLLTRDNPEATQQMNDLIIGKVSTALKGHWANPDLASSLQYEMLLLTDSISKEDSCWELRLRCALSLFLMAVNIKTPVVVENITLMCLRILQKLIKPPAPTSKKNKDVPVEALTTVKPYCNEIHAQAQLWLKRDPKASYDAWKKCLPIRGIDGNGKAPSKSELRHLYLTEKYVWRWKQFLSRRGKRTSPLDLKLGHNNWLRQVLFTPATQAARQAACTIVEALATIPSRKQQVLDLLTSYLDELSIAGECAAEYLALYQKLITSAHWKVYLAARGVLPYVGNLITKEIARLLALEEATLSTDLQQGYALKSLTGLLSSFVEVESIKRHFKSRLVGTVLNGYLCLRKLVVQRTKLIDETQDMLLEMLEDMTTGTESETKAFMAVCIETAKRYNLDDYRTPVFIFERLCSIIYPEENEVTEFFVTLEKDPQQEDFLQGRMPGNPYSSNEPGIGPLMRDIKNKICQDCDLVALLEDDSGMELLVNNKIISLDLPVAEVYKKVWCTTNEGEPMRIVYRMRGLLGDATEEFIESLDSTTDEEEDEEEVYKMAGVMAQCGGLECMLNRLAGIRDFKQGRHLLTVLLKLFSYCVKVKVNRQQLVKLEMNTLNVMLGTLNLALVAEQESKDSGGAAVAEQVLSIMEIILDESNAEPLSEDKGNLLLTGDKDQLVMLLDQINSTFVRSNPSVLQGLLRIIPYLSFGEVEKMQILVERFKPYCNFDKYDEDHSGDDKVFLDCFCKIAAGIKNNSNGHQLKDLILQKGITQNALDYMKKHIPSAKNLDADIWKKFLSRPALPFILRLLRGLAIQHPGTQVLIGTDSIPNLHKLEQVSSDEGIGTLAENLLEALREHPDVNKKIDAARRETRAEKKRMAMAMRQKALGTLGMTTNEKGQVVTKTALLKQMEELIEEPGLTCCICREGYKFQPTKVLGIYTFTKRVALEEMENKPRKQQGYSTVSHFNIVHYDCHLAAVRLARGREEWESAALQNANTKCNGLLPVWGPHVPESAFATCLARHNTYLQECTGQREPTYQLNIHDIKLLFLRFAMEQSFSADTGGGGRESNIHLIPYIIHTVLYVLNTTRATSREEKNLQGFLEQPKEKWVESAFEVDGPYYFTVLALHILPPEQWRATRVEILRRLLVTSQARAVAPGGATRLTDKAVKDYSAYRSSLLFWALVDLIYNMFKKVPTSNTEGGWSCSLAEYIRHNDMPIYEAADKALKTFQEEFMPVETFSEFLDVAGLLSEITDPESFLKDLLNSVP

stoichiometry N: 2
Substance: endogenous UBR4 tagged with FLAG at the UBR4 locus (from UniProt Q5T4S7-1 1-5183) (natural protein)
